The results in this text go back to patent US20250011468A1 (Novo Nordisk, published 2025).

Numbering of substitutions follows the chain as printed.

Common to all, as to assay: cell-based or functional assay
The target of assay [1] is T1, human plasma-derived FIXa (Haematologic Technologies Inc) (human, UniProt P00740 47-191; P00740 227-461).
Assay [2] has as its target T1, human plasma-derived FIXa (Haematologic …). This is another data set of the same source.
The target is the same in assay [3]. This is another data set of the same source.
The target is the same in assay [4]. The source holds these as a separate data set.

T1 sequence (P00740 47-191, chain 1 of 2): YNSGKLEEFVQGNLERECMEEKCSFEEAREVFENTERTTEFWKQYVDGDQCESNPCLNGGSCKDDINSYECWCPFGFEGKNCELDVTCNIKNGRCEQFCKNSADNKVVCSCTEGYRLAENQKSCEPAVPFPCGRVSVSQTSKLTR
T1 sequence (P00740 227-461, chain 2 of 2): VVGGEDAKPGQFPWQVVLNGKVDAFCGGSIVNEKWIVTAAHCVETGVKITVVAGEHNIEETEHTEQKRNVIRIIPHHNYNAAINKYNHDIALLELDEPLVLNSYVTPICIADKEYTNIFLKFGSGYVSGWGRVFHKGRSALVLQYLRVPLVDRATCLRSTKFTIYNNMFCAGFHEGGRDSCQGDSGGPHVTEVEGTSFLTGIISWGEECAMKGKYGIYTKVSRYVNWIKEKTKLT

B1: mAb1-4857 (antibody, V domains shown)
VH: EVQLVESGGGLVQPGRSLKLSCAASGFTFDDYAMHWVRQVPGKGLEWVSGISWRGDIIGYVDSVKGRFTISRDNAKNSLYLQLNSLRAEDTALYYCVKSYGSGSFYNAFDSWGQGTLVTVSS
VL: DIQMTQSPSTLSASAGDRVTITCRASQSISSWLAWYQQKPGKAPKFLIYKASRLERGVPSRFSGSGSGTEFSLTISSLQPDDFATYYCLEYSSYIRTFGQGTKVEIK
Regarding B1, in assay [1], the “FXa generation rate at 3.2 nM mAb” value is 302 pM/min, the “FXa generation rate at 6.3 nM mAb” value stood at 491 pM/min, the “FXa generation rate at 12.5 nM mAb” value worked out at 685 pM/min and the “FXa generation rate at 25 nM mAb” value was 1000 pM/min. In addition, in assay [1], the “FXa generation rate at 50 nM mAb” value amounted to 1190 pM/min, the “FXa generation rate at 100 nM mAb” value amounted to 1260 pM/min and the “FXa generation rate at 200 nM mAb” value was found to be 1300 pM/min. Further, the “Peak stimulatory activity relative to 224F3” value in assay [2] is 66.5 fold relative to 224F3.

B2: mAb4-7687 (bispecific, mAb1-6037/mAb1-6723) (bispecific antibody, V domains shown)
VH 1: B1 VH
VL 1: B1 VL with S31E, E55D
VH 2: EVQLVQSGAEVKKPGESLRISCKGSGYSFTTSWIVWVRQMPGKGLEWMGMIDPSDSFTSYSPSFQGHVTISADKSISTAYLQWSSLKASDTAMYYCARLHYYHSEEFDVWGQGTLVTVSS
VL 2: EIVLTQSPGTLSLSPGERATLSCRASQSVSSSYLAWYQQKPGQAPRLLIYGASSRARGIPDRFSGSGSGTDFTLTISRLEPEDFAVYYCQQFGSSRLFTFGQGTKLEIK
For B2, in assay [3], the “Maximum stimulation (fold), at 1650 nM BiAb” value is 2490 fold.

B3: mAb4-7786 (bispecific, mAb1-6081/mAb1-6463) (bispecific antibody, V domains shown)
VH 1: B1 VH with D30H
VL 1: B1 VL with E55D
VH 2: not shown
VL 2: not shown
As to B3, the “Maximum stimulation (fold), at 4060 nM BiAb” value in assay [3] stood at 1270 fold.

B4: mAb4-5925 (bispecific, mAb1-4857/mAb1-6723) (bispecific antibody, V domains shown)
VH 1: B1 VH
VL 1: B1 VL
VH 2: B2 VH 2
VL 2: B2 VL 2
Take B4: in assay [3], the “Maximum stimulation (fold), at 533 nM BiAb” value turned out to be 5200 fold.

B5: mAb5-1409 (bispecific, mAb1-8768/mAb1-7503) (bispecific antibody, V domains shown)
VH 1: B1 VH with D30H
VL 1: B1 VL with E55D, V58T
VH 2: B2 VH 2
VL 2: B2 VL 2 with A56T, Q102E
For the molecule B5, the “Maximum stimulation (fold), at 1115 nM BiAb” value in assay [3] was 11000 fold.

B6: mAb5-0057 (bispecific, mAb1-8768/mAb1-6723) (bispecific antibody, V domains shown)
VH 1: B1 VH with D30H
VL 1: B1 VL with E55D, V58T
VH 2: B2 VH 2
VL 2: B2 VL 2
B6: the “Maximum stimulation (fold), at 1218 nM BiAb” value in assay [3] came out at 10800 fold.

B7: mAb1-4071 (antibody, V domains shown)
VH: EVQLVQSGAEVKKPGESLRISCKGSGYSFTPYWIGWVRQMPGKGLEWMGMIDPSDSYTDYGPSFRGHVTISADKSISTAYLQWSSLKASDTAMYYCARVRIREGAFDIWGQGTMVTVSS
VL: DIVMTQSPLSLPVTPGEPASISCRSSQRLLHSTGYNYLNWYLQKPGQSPQLLIYLGSRRASGVPDRFSGSGSGTDFTLKISRVEAEDVGVYYCMQALHIPYTFGQGTKLEIK
Take B7: in assay [1], the “FXa generation rate at 3.2 nM mAb” value amounted to 43 pM/min, the “FXa generation rate at 6.3 nM mAb” value amounted to 65 pM/min, the “FXa generation rate at 12.5 nM mAb” value was determined as 97 pM/min and the “FXa generation rate at 25 nM mAb” value was found to be 131 pM/min. For the same molecule, in assay [1], the “FXa generation rate at 50 nM mAb” value amounted to 173 pM/min, the “FXa generation rate at 100 nM mAb” value is 198 pM/min and the “FXa generation rate at 200 nM mAb” value stood at 208 pM/min. In assay [2], the “Peak stimulatory activity relative to 224F3” value is 10.4 fold relative to 224F3.

B8: mAb4-5357 (monovalent one-armed version of mAb1-6590) (antibody, V domains shown)
VH: B7 VH with T30R, R65E, E103A
VL: B7 VL with R28S, G34W, A96V
For B8, the “Stimulation index at 800 nM OA antibody” value in assay [4] was found to be 1290 fold.

B9: mAb4-5337 (monovalent one-armed version of mAb1-6566) (antibody, V domains shown)
VH: B7 VH with T30R, R65E, E103A
VL: B7 VL with R28S, S32R, G34W, S57R, R58N, A96V
Consider B9, for which the “Stimulation index at 204 nM OA antibody” value in assay [4] is 690 fold.

B10: mAb4-7789 (bispecific, mAb1-6584/mAb1-6463) (bispecific antibody, V domains shown)
VH 1: B7 VH with T30R, E103A
VL 1: B7 VL with R28S, G34W, S57K, R58N, A96V
VH 2: not shown
VL 2: not shown
As to B10, the “Maximum stimulation (fold), at 253 nM BiAb” value in assay [3] worked out at 3530 fold.

B11: mAb4-5347 (monovalent one-armed version of mAb1-6582) (antibody, V domains shown)
VH: B7 VH with T30R, R65E, E103A
VL: B7 VL with R28S, G34W, S57K, R58N, A96V
On to B11, for which the “Stimulation index at 800 nM OA antibody” value in assay [4] was 692 fold.

B12: mAb4-5342 (monovalent one-armed version of mAb1-6586) (antibody, V domains shown)
VH: B7 VH with S28R, P31S, S54T, R65H, V99M, R102M, E103S
VL: B7 VL with R28S, G34W, S57K, R58N, A96V
For B12, in assay [4], the “Stimulation index at 800 nM OA antibody” value is 94 fold.

B13: mAb4-7762 (bispecific, mAb1-6584/mAb1-6738) (bispecific antibody, V domains shown)
VH 1: B7 VH with T30R, E103A
VL 1: B7 VL with R28S, G34W, S57K, R58N, A96V
VH 2: EVQLVESGGGLVKPGGSLRLSCAASGFTFSDAWMNWVRQAPGKGLEWVGRIKRKTDGGTTDYAAPVKGRFTISRDDSKNTLYLQMDSLKTEDTAVYYCTTDGIAVAGPLRVYWGQGTLVTVSS
VL 2: not shown
For the molecule B13, the “Maximum stimulation (fold), at 109 nM BiAb” value in assay [3] is 3190 fold.

B14: mAb1-4624 (antibody, V domains shown)
VH: B7 VH with S28R, P31S, S54T, R102M, E103S
VL: B7 VL with R28S, G34W, R58N, A96V
Take B14: in assay [1], the “FXa generation rate at 3.2 nM mAb” value is 383 pM/min, the “FXa generation rate at 6.3 nM mAb” value worked out at 550 pM/min, the “FXa generation rate at 12.5 nM mAb” value came out at 752 pM/min and the “FXa generation rate at 25 nM mAb” value was 851 pM/min. Moreover, in assay [1], the “FXa generation rate at 50 nM mAb” value is 989 pM/min, the “FXa generation rate at 100 nM mAb” value was 1000 pM/min and the “FXa generation rate at 200 nM mAb” value stood at 960 pM/min. Also, in assay [2], the “Peak stimulatory activity relative to 224F3” value was 50.1 fold relative to 224F3.

B15: mAb4-5355 (monovalent one-armed version of mAb1-6584) (antibody, V domains shown)
VH: B7 VH with T30R, E103A
VL: B7 VL with R28S, G34W, S57K, R58N, A96V
B15: the “Stimulation index at 800 nM OA antibody” value in assay [4] was determined as 580 fold.

B16: mAb4-7758 (bispecific, mAb1-6584/mAb1-6097) (bispecific antibody, V domains shown)
VH 1: B7 VH with T30R, E103A
VL 1: B7 VL with R28S, G34W, S57K, R58N, A96V
VH 2: B13 VH 2 with D31N, W33H, D86N
VL 2: not shown
Turning to B16, the “Maximum stimulation (fold), at 633 nM BiAb” value in assay [3] worked out at 2810 fold.

B17: mAb4-7756 (bispecific, mAb1-6584/mAb1-6723) (bispecific antibody, V domains shown)
VH 1: B7 VH with T30R, E103A
VL 1: B7 VL with R28S, G34W, S57K, R58N, A96V
VH 2: B2 VH 2
VL 2: B2 VL 2
In the case of B17, in assay [3], the “Maximum stimulation (fold), at 1520 nM BiAb” value worked out at 2600 fold.

B18: mAb4-5344 (monovalent one-armed version of mAb1-6592) (antibody, V domains shown)
VH: B7 VH with T30R, E103A
VL: B7 VL with R28S, G34W, A96V
In the case of B18, the “Stimulation index at 800 nM OA antibody” value in assay [4] was 916 fold.

B19: mAb1-4707 (antibody, V domains shown)
VH: EVQLVESGGGLVQPGRSLRLSCAASGFTFGDYAMHWVRQAPGKGLEWVSGISWVSGSIGYARSVKGRFTISRDNAKNSLYLQMNSLRAEDTALYYCAKGQYDEDAGMDVWGQGTTVTVSS
VL: DIQMTQSPSSLSASVGDRVTITCRASQSIRSYLNWYQQKPGKAPKLLIYAASSLQSGVPSRFSGSGSGTDFTLTISSLQPEDFATYYCQQGYPTWTFGGGTKVEIK
Take B19: in assay [1], the “FXa generation rate at 3.2 nM mAb” value was 662 pM/min, the “FXa generation rate at 6.3 nM mAb” value came to 714 pM/min, the “FXa generation rate at 12.5 nM mAb” value is 697 pM/min and the “FXa generation rate at 25 nM mAb” value stood at 685 pM/min. Besides, in assay [1], the “FXa generation rate at 50 nM mAb” value was 629 pM/min, the “FXa generation rate at 100 nM mAb” value worked out at 581 pM/min and the “FXa generation rate at 200 nM mAb” value was determined as 586 pM/min. In assay [2], the “Peak stimulatory activity relative to 224F3” value was 35.9 fold relative to 224F3.

B20: mAb1-4763 (antibody, V domains shown)
VH: B19 VH with V54N, R62K
VL: B19 VL with S28W, R30S, Q55P
As to B20, in assay [1], the “FXa generation rate at 3.2 nM mAb” value worked out at 370 pM/min, the “FXa generation rate at 6.3 nM mAb” value was found to be 390 pM/min, the “FXa generation rate at 12.5 nM mAb” value was determined as 381 pM/min and the “FXa generation rate at 25 nM mAb” value was found to be 373 pM/min. Also, in assay [1], the “FXa generation rate at 50 nM mAb” value came to 369 pM/min, the “FXa generation rate at 100 nM mAb” value is 375 pM/min and the “FXa generation rate at 200 nM mAb” value was found to be 401 pM/min. The “Peak stimulatory activity relative to 224F3” value in assay [2] was 20 fold relative to 224F3.
